Reference: patent US20260209362A1 (VIB VZW, published 2026)

T1: biotinylated recombinant human IL-12Rβ2 (produced in-house) (human, UniProt Q99665 24-622, randomly biotinylated)
T1 construct: also called hIL-12RB2; human IL-12RB2
T1 sequence: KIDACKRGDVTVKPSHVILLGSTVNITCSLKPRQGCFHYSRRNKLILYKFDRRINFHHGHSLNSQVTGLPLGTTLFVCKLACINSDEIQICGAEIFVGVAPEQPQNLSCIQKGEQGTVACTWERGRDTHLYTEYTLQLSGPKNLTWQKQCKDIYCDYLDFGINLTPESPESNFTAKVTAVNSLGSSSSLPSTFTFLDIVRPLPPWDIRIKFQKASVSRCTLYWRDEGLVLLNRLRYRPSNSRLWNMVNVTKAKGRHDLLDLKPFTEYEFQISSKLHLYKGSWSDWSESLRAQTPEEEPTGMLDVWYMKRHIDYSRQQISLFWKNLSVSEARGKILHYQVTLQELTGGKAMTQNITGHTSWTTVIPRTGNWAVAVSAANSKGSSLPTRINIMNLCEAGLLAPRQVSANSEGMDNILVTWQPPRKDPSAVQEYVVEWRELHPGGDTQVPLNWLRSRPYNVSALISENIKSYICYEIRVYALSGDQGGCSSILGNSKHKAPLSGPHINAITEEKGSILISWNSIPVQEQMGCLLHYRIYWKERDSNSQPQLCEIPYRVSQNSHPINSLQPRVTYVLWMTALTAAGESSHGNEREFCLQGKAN

T2: biotinylated recombinant mouse IL-12Rβ2 (produced in-house) (mouse, UniProt P97378 24-637, randomly biotinylated)
T2 construct: also called mIL-12RB2; mouse IL-12RB2
T2 sequence: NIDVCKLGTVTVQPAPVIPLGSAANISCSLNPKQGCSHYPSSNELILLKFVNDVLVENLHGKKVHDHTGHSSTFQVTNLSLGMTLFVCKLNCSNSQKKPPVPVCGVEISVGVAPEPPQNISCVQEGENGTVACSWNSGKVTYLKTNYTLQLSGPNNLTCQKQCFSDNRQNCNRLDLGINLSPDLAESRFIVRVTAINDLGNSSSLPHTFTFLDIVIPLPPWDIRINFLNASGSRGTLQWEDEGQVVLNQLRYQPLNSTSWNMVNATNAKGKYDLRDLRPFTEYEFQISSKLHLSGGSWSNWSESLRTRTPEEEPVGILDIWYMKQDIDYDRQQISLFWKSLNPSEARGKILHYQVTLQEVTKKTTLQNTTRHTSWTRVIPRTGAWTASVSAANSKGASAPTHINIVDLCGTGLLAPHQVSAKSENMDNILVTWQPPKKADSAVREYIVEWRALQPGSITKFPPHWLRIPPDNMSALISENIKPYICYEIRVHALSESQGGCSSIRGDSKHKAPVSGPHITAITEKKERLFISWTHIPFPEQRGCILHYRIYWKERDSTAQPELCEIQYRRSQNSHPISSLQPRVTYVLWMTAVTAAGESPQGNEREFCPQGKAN


Columns and labels:
[1] = target: T1, biotinylated recombinant human IL-12Rβ2 …; experiment: ELISA, periplasmic extract on biotinylated human IL-12Rβ2; control streptavidin-coated blocked wells
[2] = target: T2, biotinylated recombinant mouse IL-12Rβ2 …; experiment: ELISA, periplasmic extract on biotinylated mouse IL-12Rβ2; control streptavidin-coated blocked wells

Binder	ELISA binding hIL-12RB2/control [1]	ELISA binding mIL-12RB2/control [2]
anti-IL-12Rβ2 VHH clone 2CAMS29 (VHH, Tested as periplasmic extract; CDR3 group 54; also called 20534) VHH: QVQLQESGGGLVQAGGSLRLSCAASGLTSSTYVIGWFRQAPGKEREFVAAIMLSGGTTIYADSLKGRCTIYKDNAKNTVYLQMNSLKLEDTAVYYCASGLIYRYSDFPRSQKYNFWGQGTQVTVSS	1.06 ratio to control	6.24 ratio to control
anti-IL-12Rβ2 VHH clone 2CAMS52 (VHH, Tested as periplasmic extract; CDR3 group 55; also called 20535) VHH: QVQLQESGGGLVQPGASLRLSCATSGPTLSTYAMGWFRQAPGKEREVVATISWSGGRVTYVDSVKGRFTISRDNAKNTAYLQMNRLRPDDTAVYTCAARESDYGAYDYWGQGTQVTVSS	0.969 ratio to control	6.41 ratio to control
anti-IL-12Rβ2 VHH clone 3CRM95 (VHH, Tested as periplasmic extract; CDR3 group 44; also called 20465) VHH: QVQLQESGGGLVQAGDFLRLSCVFSGGTFGDYSMGWFRQAPGKEREFVAAIRWSGDSTQYAEAVKGRFTISRDNAKSTVYLQMSSLKPEDTAVYYCAADPSYYIGPNHTPSRYRDWGQGTQVTVSS	1.41 ratio to control	6.72 ratio to control
anti-IL-12Rβ2 VHH clone 2CRM28 (VHH, Tested as periplasmic extract; CDR3 group 40) VHH: QVQLQESGGGLVQPGGSLRLSCAASGRAWNEYNMGWFRQAPGKEREFVALIWWSSGNTYYADSVKGRFTISRDKVKNTVYLQMNSLKPEDTAVYYCAAGPTFNKYEYWGQGTQVTVSS	1 ratio to control	13.5 ratio to control
anti-IL-12Rβ2 VHH clone 3CAM65 (VHH, Tested as periplasmic extract; CDR3 group 49; also called 20513) VHH: QVQLQESGGGLVQAGGSLRLSCAPSGRTFTTYVMGWFRQAPGKEREFVAHISWSGGRTYYADSVKGRFTISRDNAKNTSYLQMNSLKPEDTAVYYCAAARSDAVRIGYAEGYEYWGQGTQVTVSS	1.25 ratio to control	5.98 ratio to control
anti-IL-12Rβ2 VHH clone 2CRM88 (VHH, Tested as periplasmic extract; CDR3 group 18; also called 20453) VHH: QVQLQESGGGLVQAGGSLRLSCQASGRTFSNYRMGWFRQAPGKEREFVAGINWDGGHTYYTDSVKGRFTISRDNAKNTVYLQMNSLKPEDTAVYQCAVRVREYGSSRYEDQFDYWGQGTQVTVSS	0.873 ratio to control	3.73 ratio to control
anti-IL-12Rβ2 VHH clone 2CRM16 (VHH, Tested as periplasmic extract; CDR3 group 18) VHH: QVQLQESGGGLVQAGGSLRLSCAASGRTFSNYRMGWFRQAPGKEREFVAGINWDGGHTYYTDSVKGRFTISRDNAKNTVYLQMNSLKPEDTAVYQCAVRVREYGSSRYEDQFDYWGQGTQVTVSS	0.947 ratio to control	4.12 ratio to control
anti-IL-12Rβ2 VHH clone 2CRM42 (VHH, Tested as periplasmic extract; CDR3 group 18; also called 20449) VHH: QVQLQESGGGLVQPGESLRLSCQASGRTFSNYRMGWFRQAPGKEREFVAGINWDGGHTYYTDSVKGRFTISRDNAKNTVYLQMNSLKPEDTAVYQCAVRVREYGSSRYEDQFDYWGQGTQVTVSS	0.942 ratio to control	6.09 ratio to control
anti-IL-12Rβ2 VHH clone 2CRM40 (VHH, Tested as periplasmic extract; CDR3 group 24; also called 20448) VHH: QVQLQESGGGLVQTGGSLRLSCAASGRTYAMAWFRQAPGKEREFAAVIIGGDRTYYANSVKDRFTISRDNAKETVYLQMNNLKPEDTAVYYCAANRRLYNSGRGYSQSEYEYWGQGTQVTVSS	0.993 ratio to control	5.86 ratio to control
anti-IL-12Rβ2 VHH clone 3CAMS63 (VHH, Tested as periplasmic extract; CDR3 group 26; also called 20552) VHH: QVQLQESGGGLVQAGGSLRLSCAASGRTFSNYAMGWFRQAPGKEREFVAAINRSGTTLYVDSVKGRFTISRDNAKNTVALQMNSLKPEDTAVYYCVAGMPFSYSDYPRDSKYDYWGQGTQVTVSS	1.01 ratio to control	9.78 ratio to control
anti-IL-12Rβ2 VHH clone 2CAM56 (VHH, Tested as periplasmic extract; CDR3 group 28; also called 20490) VHH: QVQLQESGGGEVQAGGSLRLSCVASGRTFSVYTTGWFRQAPGKERELVAGMSGTRTYYADSVKGRFTISRDNAKNTVYLQMNSLKPDDTAVYYCAERRYGGPSLVWDEYDYRGQGTQVTVSS	0.918 ratio to control	5.21 ratio to control
anti-IL-12Rβ2 VHH clone 2CAM67 (VHH, Tested as periplasmic extract; CDR3 group 28; also called 20494) VHH: QVQLQESGGGEVQAGGSLRLSCVASGRTFSVYTTGWFRQAPGKEREFVAGMSGTRTYYADSVKGRFTISRDNAKNTVYLQMNSLKPDDTAVYYCAERRYGGPSLVWDEYDYRGQGTQVTVSS	0.87 ratio to control	7.74 ratio to control
anti-IL-12Rβ2 VHH clone 2CAM39 (VHH, Tested as periplasmic extract; CDR3 group 46; also called 20482) VHH: QVQLQESGGGLVQAGGSLRLSCAASGRTFSTYAMGWFRQAPGKEREFVAAISWSGGSTYYADSVKGRFTISRDNAKNTGYLQMNSLKPEDTAVYVCAADAEDPILYGSSWNNRRKEYDYWGQGTQVTVSS	1 ratio to control	8.02 ratio to control
anti-IL-12Rβ2 VHH clone 3CAM1 (VHH, Tested as periplasmic extract; CDR3 group 48) VHH: QVQLQESGGGLVQAGGSLRLSCAASGRTFGSHRMGWFRQAPGQEREFVAAIAWRGGTQYYTDSVKGRFTISRDNANNTVYLQMNSLKPEDAAVYYCVAGEGSSWGDITDPRRYVFWGQGTQVTVSS	1.2 ratio to control	3.3 ratio to control
anti-IL-12Rβ2 VHH clone 2CAM9 (VHH, Tested as periplasmic extract; CDR3 group 19) VHH: QVQLQESGGGLVQAGMSLRLSCAASGLTFSWYRMGWFRQAPGKEREFVAGWYGVLTQYRDSVKGRFTISRDDAKNTVYLQMNSLKPEDTAVYYCAASLGGNYRSYEYDYWGQGTQVTVSS	1.09 ratio to control	8.27 ratio to control
anti-IL-12Rβ2 VHH clone 2CAM12 (VHH, Tested as periplasmic extract; CDR3 group 19) VHH: QVQLQESGGGLVQAGGSLRLSCAASGRTFSWYRMGWFRQAPGKEREFVAGWYGVLTQYRDSVKGRFTISRDDAKNTVYLQMNSLKPEDTAVYYCAASLGGNYRSYEYDYWGQGTQVTVSS	0.9 ratio to control	3.38 ratio to control
anti-IL-12Rβ2 VHH clone 2CRMS29 (VHH, Tested as periplasmic extract; CDR3 group 52; also called 20521) VHH: QVQLQESGGGLVQAGGPLRLSCAASGRTFSGSAMGWFRQAPGKEREFVAAITWVGGFTYYADSVKGRFTISRDNAKNTVYLQMNNLSPEDTAVYSCAAQAYHKSGYYYPPLYDYWGQGTQVTVSS	1.05 ratio to control	5.85 ratio to control
anti-IL-12Rβ2 VHH clone 2CAM45 (VHH, Tested as periplasmic extract; CDR3 group 47; also called 20485) VHH: QVQLQESGGGLVQAGGSLRLSCAASGFTFDDYAIGWFRQAPGKEREGISCISSSDYGTYYAGSVKGRFTISSDNAKNTVYLQMNSLKPEDTAVYYCAAEAISEYDCLGINYGMDYWGKGTQVTVSS	0.974 ratio to control	10.4 ratio to control
anti-IL-12Rβ2 VHH clone 2CAM88 (VHH, Tested as periplasmic extract; CDR3 group 17) VHH: QVQLQESGGGLVPPGDSLRLSCAASGRTFSSYTMGWFRQAPGKEREFVARISQDGGSTYYADSMKGRFTVARDNAKNTVYLQMNSLKPEDTAVYYCAADMIKWGLRVGVDSFKYWGQGTQVTVSS	0.998 ratio to control	62.3 ratio to control
anti-IL-12Rβ2 VHH clone 3CAM10 (VHH, Tested as periplasmic extract; CDR3 group 25; also called 20507) VHH: QVQLQESGGGLVQAGGSLRLSCAASGRTFSDYPMAWFRQAPGKEREFVAGISNGGTAYYADSVKGRFTISRDNTRNTVYLQMNRLKVEDTAVYYCAAVHLLSNLRGADPHEADYWGQGTQVTVSS	1.14 ratio to control	40.9 ratio to control
anti-IL-12Rβ2 VHH clone 2CAM47 (VHH, Tested as periplasmic extract; CDR3 group 27; also called 20487) VHH: QVQLQESGGGVVQEGASLRLSCAASGRNLSTYAMGWIRQAPGKEREFVAAISWAGSTTYYADSVKGRFIISRDNAKNTLNLQMNSLKPEDTAVYYCAAPPYVTTTYYATPPSDIRDYHYWGQGTQVTVSS	0.969 ratio to control	4.91 ratio to control
anti-IL-12Rβ2 VHH clone 3CAM11 (VHH, Tested as periplasmic extract; CDR3 group 27; also called 20508) VHH: QVQLQESGGGLVQAGGSLRLSCAASGRNLSTYAMGWIRQAPGKEREFVAAISWAGSTTYYADSVKGRFIISRDNAKNTLNLQMNSLKPEDTAVYYCAAPPYVTTTYYATPPSDIRDYHYWGQGTQVTVSS	1.31 ratio to control	6.6 ratio to control
anti-IL-12Rβ2 VHH clone 2CAM18 (VHH, Tested as periplasmic extract; CDR3 group 45; also called 20475) VHH: QVQLQESGGGLVQVGDSLKLSCVASGTTFSTHVMAWYRQAPGKQREWVASIDSAGTTNYKDAVKGRFTISRDNVKRTVYLQMNNLKPEDSAVYLCSIPSRNAWGQGTQVTVSS	1.51 ratio to control	3.22 ratio to control
